Assay results as given in US5683884 (ZymoGenetics, Inc., dated 1997).
Bridges are numbered along the chain shown (N, C = ends). Where no end group is shown, it is not given here.

Key:
[1] = target: T1, human calcitonin receptor (cDNA clone pHollex, from T-47D breast carcinoma cDNA), expressed in transfected BHK cells (human)
T1 sequence: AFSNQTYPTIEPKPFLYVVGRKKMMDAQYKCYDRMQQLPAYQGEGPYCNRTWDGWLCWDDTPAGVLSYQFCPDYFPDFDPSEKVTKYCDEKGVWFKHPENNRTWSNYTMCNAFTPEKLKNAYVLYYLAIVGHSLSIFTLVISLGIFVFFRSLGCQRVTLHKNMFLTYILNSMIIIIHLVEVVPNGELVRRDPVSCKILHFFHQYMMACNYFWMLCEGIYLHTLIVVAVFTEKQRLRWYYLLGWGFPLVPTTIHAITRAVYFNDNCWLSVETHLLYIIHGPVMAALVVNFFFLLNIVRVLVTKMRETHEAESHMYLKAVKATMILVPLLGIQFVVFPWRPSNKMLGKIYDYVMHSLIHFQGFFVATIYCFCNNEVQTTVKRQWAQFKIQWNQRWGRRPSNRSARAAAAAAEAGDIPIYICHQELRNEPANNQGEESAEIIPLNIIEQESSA

[2] = target: T1, human calcitonin receptor (cDNA clone pHollex, from T-47D breast carcinoma cDNA), expressed in transfected BHK cells (human); remark: listed apart in the source
[3] = target: T2, human calcitonin receptor (cDNA clone pHollex, from T-47D breast carcinoma cDNA), expressed in transfected … (human); assay: 125I calcitonin competition binding on whole cells, clone Hollex1, average
T2 chain: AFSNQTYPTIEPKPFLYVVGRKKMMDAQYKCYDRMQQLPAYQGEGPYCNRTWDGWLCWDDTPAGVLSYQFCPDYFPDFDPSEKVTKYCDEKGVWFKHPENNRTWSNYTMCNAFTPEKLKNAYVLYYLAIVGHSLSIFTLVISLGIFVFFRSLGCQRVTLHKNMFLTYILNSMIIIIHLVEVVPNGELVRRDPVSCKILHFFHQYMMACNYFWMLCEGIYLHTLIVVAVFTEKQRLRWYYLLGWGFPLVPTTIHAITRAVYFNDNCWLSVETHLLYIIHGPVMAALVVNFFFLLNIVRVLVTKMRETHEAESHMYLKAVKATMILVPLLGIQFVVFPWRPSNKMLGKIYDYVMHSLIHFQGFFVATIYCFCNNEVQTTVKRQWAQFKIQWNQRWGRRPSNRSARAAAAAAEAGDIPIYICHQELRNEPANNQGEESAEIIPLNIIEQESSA
Description: (§1) Clones Hollex1 and Hollex2 were tested for receptor-mediated ability to bind calcitonin using a competition assay. T47D cells were used as a positive control and BHK cells transfected with Zem1698 were used as a negative control.
(§2) The cells were plated at a density of 1×10^5 cells/well in a 24-well cell culture dish and allowed to grow for 48 hours at 37° C. and 5% CO_2 in growth medium (described in previous examples). The cells were rinsed in binding medium (500 ml RPMI 1640 (Sigma, St. Louis, Mo.), 1 mg/ml bacitracin (Sigma), and 1 mg/ml BSA (Boehringer Mannheim)) to remove the serum. Three hundred microliters of binding medium containing radiolabeled ^125I agonist and a serial dilution of unlabeled competitor (Table 1) were added to appropriate wells. The cells were incubated for 1.5 hours at room temperature, and then rinsed 3 times with PBS to remove unincorporated radioactivity. Five hundred microliters of 0.25N NaOH was added to each well to solubilize the cells. The samples were collected from each well and CPMs were counted on a gamma counter.

[4] = target: T2, human calcitonin receptor (cDNA clone …); assay: 125I calcitonin competition binding on whole cells, clone Hollex2, average
Description: as §1, §2

[5] = target: T3, calcitonin receptor of T-47D human breast carcinoma cells (endogenous, positive control) (human, UniProt P30988); assay: 125I calcitonin competition binding on whole T47D cells (positive control), average
T3 sequence: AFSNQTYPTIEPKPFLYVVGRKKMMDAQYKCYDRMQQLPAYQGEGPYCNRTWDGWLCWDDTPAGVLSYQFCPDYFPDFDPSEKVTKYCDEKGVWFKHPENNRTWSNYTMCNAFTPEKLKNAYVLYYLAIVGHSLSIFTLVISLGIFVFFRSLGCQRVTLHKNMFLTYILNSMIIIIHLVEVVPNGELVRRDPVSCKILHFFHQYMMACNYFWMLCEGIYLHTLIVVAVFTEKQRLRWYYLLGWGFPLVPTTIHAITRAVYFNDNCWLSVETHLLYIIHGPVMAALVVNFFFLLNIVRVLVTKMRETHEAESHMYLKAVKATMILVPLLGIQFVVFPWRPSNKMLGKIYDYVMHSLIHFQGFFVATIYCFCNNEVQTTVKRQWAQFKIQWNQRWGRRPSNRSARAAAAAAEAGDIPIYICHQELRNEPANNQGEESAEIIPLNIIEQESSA
Description: as §1, §2

- ED50 of cAMP induction (Hollex1) [1]: 0.07 nM
- ED50 of cAMP induction (Hollex2) [1]: 0.04 nM
- induction of cAMP (radioimmunoassay, scintillation proximity assay) (fold induction) [1]: 12
- ED50 of labeled inositol phosphate levels (Hollex1) [2]: 9.5 nM
- Kd [3]: 0.5 nM
- Kd [4]: 0.3 nM
- Kd [5]: 0.6 nM
Binder: CSNLSTCVLGKLSQELHKLQTYPRTNTGSGTP-NH2 (ligand, disulfide 1-7; ends not checked; also: also used 125I-labelled as tracer) [salmon calcitonin]
